In US20030153523, “Methods for identifying RNA binding compounds” (University of Medicine and Dentistry of New Jersey, published 2003):

Molecular target: T1, Tat (48-57) peptide (HIV-1)
T1 chain: GRKKRRQRRR

Q: Which Kd does the source give for GGCAGAUCUGAGCCUGGGAGCUCUCUGCC (ssRNA) [TAR RNA (wild type)] here?
A: 727 nM
